The text below walks through data of publication doi:10.64898/2025.12.16.694598.

As a reminder, the Kd is a measure of binding affinity in units of concentration.

What all share (experiment): BLI
(In general: BLI is a label-free optical method that tracks binding on a fibre tip over time.)

Series [1] has as its target Recombinant histidine-tagged Ewing Sarcoma Breakpoint Region 1 (EWSR1) protein (UniProt Q01844).
The target in series [2] is CHIKV nsP2 (Chikungunya virus; strain of the nsP2 …, UniProt Q8JUX6 536-1333).
Sequence of CHIKV nsP2 (Q8JUX6 536-1333): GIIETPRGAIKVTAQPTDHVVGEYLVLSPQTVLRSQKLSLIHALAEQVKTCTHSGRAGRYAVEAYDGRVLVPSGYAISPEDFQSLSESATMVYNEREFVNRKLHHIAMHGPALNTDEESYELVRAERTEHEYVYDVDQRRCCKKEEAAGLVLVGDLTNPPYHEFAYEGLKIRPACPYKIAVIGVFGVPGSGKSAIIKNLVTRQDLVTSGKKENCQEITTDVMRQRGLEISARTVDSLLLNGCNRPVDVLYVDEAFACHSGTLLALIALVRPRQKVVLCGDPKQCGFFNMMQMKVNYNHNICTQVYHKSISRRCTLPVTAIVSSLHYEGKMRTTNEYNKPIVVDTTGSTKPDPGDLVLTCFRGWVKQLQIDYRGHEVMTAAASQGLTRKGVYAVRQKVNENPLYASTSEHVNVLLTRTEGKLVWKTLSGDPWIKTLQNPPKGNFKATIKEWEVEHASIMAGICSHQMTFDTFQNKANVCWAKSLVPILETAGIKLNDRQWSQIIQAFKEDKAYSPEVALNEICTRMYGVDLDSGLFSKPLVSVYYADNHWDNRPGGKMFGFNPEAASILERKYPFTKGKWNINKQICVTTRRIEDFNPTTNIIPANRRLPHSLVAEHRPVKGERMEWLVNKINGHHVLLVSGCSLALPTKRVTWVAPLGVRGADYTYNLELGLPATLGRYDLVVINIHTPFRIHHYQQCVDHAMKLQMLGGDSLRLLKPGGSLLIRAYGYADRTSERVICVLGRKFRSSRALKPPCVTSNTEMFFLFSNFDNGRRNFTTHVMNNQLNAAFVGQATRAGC
The target of series [3] is EWSR1 (UniProt Q01844 1-656).
Sequence of EWSR1 (Q01844 whole entry): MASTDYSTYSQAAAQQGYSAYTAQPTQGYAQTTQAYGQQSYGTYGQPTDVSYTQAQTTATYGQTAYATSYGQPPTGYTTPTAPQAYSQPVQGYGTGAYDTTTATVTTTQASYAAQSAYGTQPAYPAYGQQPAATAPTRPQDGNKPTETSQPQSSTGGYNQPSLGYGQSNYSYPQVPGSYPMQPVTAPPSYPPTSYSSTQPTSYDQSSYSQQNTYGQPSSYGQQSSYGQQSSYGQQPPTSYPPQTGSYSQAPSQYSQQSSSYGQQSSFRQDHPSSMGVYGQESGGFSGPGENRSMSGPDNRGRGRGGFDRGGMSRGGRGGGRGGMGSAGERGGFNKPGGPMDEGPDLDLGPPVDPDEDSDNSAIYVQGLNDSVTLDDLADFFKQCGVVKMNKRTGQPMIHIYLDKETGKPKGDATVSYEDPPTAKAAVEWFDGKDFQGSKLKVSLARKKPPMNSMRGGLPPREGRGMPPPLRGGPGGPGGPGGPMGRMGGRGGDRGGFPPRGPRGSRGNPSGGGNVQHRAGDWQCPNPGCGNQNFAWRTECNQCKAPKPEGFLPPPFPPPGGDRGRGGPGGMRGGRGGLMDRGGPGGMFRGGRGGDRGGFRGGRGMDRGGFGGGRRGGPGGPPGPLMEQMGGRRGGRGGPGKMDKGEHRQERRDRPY

Sequence of Recombinant histidine-tagged Ewing Sarcoma Breakpoint Region 1 (EWSR1) protein (Q01844 whole entry): as above
Sequence of Chikungunya virus non-structural protein 2 (CHIKV nsP2), full-length recombinant (Q8JUX6 536-1333): as the sequence (Q8JUX6 536-1333) above

For the molecule “Chikungunya virus non-structural protein 2 (CHIKV nsP2), full-length recombinant (from UniProt Q8JUX6) (enzyme)”, in series [1], the Kd was determined as 0.716 µM. As to CCGAACCCACAGGGACGUAGGAGAUGUUAUUUUGUUUUUAAUAUUUC (ssRNA) [3NCR48], the Kd in series [2] is 0.0929 ± 0.0016 µM; in series [3] it was 0.0914 ± 0.00037 µM.
